Assay [1] has as its system foreskin cells. The experiment in a line: Foreskin cell growth in DF5SFe-based media. Set-up: species or system human. The following applies: individual FGF added at 100 ng/ml for 96 h to DF5SFe minus FGF. On the procedure:
To determine growth factors that can help primary foreskin cell growth, individual growth factors contained in FBS were tested. The FGF family of growth factors has several members, one or more of which is commonly used for fibroblast culture. DF5SFe contains 100 ng/ml zebrafish recombinant FGF2. Each FGF family member was tested for its ability to support foreskin cell growth. Foreskin cells were aliquoted into the well of culture plates and incubated for 24 hours in DF5SFe minus FGF. Individual FGF types were added at 100 ng/ml for 96 h.

The test system of assay [2] is iPS cells. Put plainly: Long-term pluripotency of lentiviral iPS cell lines. It is filed as cell-based, human. The following applies: added to DF5SFe; TGF-β 2 ng/ml or NODAL 100 ng/ml. An excerpt:
Human ES cell lines, such as H1 and H9 have a culture history that includes exposure to various complex culture components, such as FBS, feeder cells, and knockout serum replacer. Exposure to these components could conceivably create dependency on these components and, consequently, alter cellular response to simplified media. Culture history might play a lesser role for iPS cells, derived from reprogrammed somatic cells, as derivation conditions are less complex. Therefore, different factors were tested with two original lentiviral iPS cell lines (Yu, et al., Science 318:1917 (2007)) grown in DF5SFe. Cells were transferred from MEF plates directly into DF5SFe medium for one passage and then passaged into various growth factor conditions. […] Pluripotency surface markers SSEA4, SSEA3, Tra-1-60, and Tra-1-81 were also expressed. Cells with normal karyotypes were continuously maintained for more than 20 passages. The cells were capable of forming teratomas 5-7 weeks after injection into severe combined immunodeficient (SCID) mice.

The subject of assay [3] is H1 cells. The experiment in a line: NANOG mRNA expression. In kind it is cell-based, human. The note with it: added to DF5S; NODAL 100 ng/ml or TGF-β 2 ng/ml; compared to DF5S. The text has this: DF5S was used to expand H1 cells. Cells grown in DF5S were more prone to differentiate than cells grown in TeSR™. However, H1 cells could be grown for several weeks (more than 15 passages), during which the cells maintained human ES cell morphology and high levels of OCT4 expression (FIG. 1E, FIG. 1F). […] DF5S+NODAL also supported pluripotency of the two tested human iPS cell lines, as determined by high expression of the pluripotency marker OCT4. All cells (hES cells and iPS cells) grown in DF5S with either NODAL or TGF-β maintained a normal karyotype after long-term passage.

Assay [4] has as its system H1 cells. Put plainly: Oct4 expression by flow cytometry as indicator of pluripotency. The following applies: DF5SFe supplemented with NODAL at TeSR concentration. It is filed as cell-based, human. How it is done:
As described in Example 3, human pluripotent cells, such as H1, H9, and iPS cells, could be grown and passaged over 15 times in DF5S but were prone to differentiate, such that extra care is needed to sustain pluripotency in DF5S. Because pluripotency could be maintained more easily in TeSR™, growth factors present in TeSR™ were added individually to DF5SFe used to grow H1 cells that were previously cultured in DF5S without differentiating to identify factors supporting long-term pluripotency. Cells were passaged approximately one day after reaching confluency, facilitating cell differentiation, and Oct4 expression, assessed by flow cytometry, was used as indicator of pluripotency.
Human pluripotent cells grown in DF5SFe elongated and lined up along each other, resembling a “spindle” shape just prior to differentiation. […] Thus, recombinant proteins of the TGF-β pathway were tested for their ability to support long-term pluripotency.

B1: FGF6: FGF family member growth factor (protein, UniProt P10767 38-208, looked up)
Fibroblast growth factor 6: SPAGTRANNTLLDSRGWGTLLSRSRAGLAGEIAGVNWESGYLVGIKRQRRLYCNVGIGFHLQVLPDGRISGTHEENPYSLLEISTVERGVVSLFGVRSALFVAMNSKGRLYATPSFQEECKFRETLLPNNYNAYESDLYQGTYIALSKYGRVKRGSKVSPIMTVTHFLPRI
Take B1: the foreskin cell growth result in assay [1] was “supported foreskin cell growth most effectively”.

B2: FGF4: FGF family member growth factor (protein, UniProt P08620 31-206, looked up)
Fibroblast growth factor 4: APTAPNGTLEAELERRWESLVALSLARLPVAAQPKEAAVQSGAGDYLLGIKRLRRLYCNVGIGFHLQALPDGRIGGAHADTRDSLLELSPVERGVVSIFGVASRFFVAMSSKGKLYGSPFFTDECTFKEILLPNNYNAYESYKYPGMFIALSKNGKTKKGNRVSPTMKVTHFLPRL
Turning to B2, the foreskin cell growth result in assay [1] was “supported foreskin cell growth most effectively”.

B3: NODAL (protein, UniProt Q96S42 238-347, looked up)
Nodal homolog: HHLPDRSQLCRKVKFQVDFNLIGWGSWIIYPKQYNAYRCEGECPNPVGEEFHPTNHAYIQSLLKRYQPHRVPSTCCAPVKTKPLSMLYVDNGRVLLDHHKDMIVEECGCL
notes: recombinant protein of the TGF-β pathway
As for B3, in assay [2], the long-term pluripotency entry was “supported long-term pluripotency of iPS cells”. The “NANOG mRNA level” value in assay [3] is “significantly higher levels of NANOG mRNA”. In addition, the Oct4 expression result in assay [4] is on record as “sustained high Oct4 expression”.

Source of the values: patent US9279107B2, “Simplified basic media for human pluripotent cell culture” (WISCONSIN ALUMNI RESEARCH FOUNDATION, priority 2010, dated 2016).
